# Laboratory results: IntAct's records for PubMed 18166655
# B1: Death-associated inhibitor of apoptosis 2 (Drosophila melanogaster (Fruit fly)), Q24307 (parent)
# chain: MTELGMELESVRLATFGEWPLNAPVSAEDLVANGFFATGNWLEAECHFCHVRIDRWEYGDQVAERHRRSSPICSMVLAPNHCGNVPRSQESDNEGNSVVDSPESCSCPDLLLEANRLVTFKDWPNPNITPQALAKAGFYYLNRLDHVKCVWCNGVIAKWEKNDNAFEEHKRFFPQCPRVQMGPLIEFATGKNLDELGIQPTTLPLRPKYACVDARLRTFTDWPISNIQPASALAQAGLYYQKIGDQVRCFHCNIGLRSWQKEDEPWFEHAKWSPKCQFVLLAKGPAYVSEVLATTAANASSQPATAPAPTLQADVLMDEAPAKEALALGIDGGVVRNAIQRKLLSSGCAFSTLDELLHDIFDDAGAGAALEVREPPEPSAPFIEPCQATTSKAASVPIPVADSIPAKPQAAEAVANISKITDEIQKMSVATPNGNLSLEEENRQLKDARLCKVCLDEEVGVVFLPCGHLATCNQCAPSVANCPMCRADIKGFVRTFLS
# partner: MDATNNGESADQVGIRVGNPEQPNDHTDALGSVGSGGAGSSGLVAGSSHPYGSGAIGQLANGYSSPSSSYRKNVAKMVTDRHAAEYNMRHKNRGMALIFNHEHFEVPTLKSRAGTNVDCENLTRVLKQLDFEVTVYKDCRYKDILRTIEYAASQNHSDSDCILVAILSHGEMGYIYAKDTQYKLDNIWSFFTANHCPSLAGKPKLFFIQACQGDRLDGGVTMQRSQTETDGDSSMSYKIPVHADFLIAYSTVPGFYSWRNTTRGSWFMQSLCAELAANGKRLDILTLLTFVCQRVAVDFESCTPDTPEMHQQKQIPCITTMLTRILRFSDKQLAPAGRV
# B2: Death-associated inhibitor of apoptosis 2 (Drosophila melanogaster (Fruit fly)), Q24307 (parent)
# chain: B1 chain
# partner: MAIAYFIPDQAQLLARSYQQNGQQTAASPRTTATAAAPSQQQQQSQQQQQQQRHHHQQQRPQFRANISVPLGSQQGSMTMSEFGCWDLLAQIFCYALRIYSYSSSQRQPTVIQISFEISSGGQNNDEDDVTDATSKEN
# B3: Caspase drICE (Drosophila melanogaster (Fruit fly)), O01382 (parent)
# chain: B1 partner
# partner: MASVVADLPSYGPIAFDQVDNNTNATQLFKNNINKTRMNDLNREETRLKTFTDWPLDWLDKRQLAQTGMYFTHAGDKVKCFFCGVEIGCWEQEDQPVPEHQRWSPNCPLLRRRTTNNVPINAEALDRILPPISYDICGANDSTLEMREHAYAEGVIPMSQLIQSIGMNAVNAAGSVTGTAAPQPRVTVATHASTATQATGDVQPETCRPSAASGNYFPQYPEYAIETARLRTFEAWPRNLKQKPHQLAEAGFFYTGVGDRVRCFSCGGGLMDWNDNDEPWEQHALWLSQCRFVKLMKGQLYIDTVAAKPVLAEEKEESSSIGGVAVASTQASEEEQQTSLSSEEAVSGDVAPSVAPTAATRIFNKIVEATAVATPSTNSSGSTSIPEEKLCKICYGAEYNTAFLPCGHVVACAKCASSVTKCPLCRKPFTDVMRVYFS
# B4: Death-associated inhibitor of apoptosis 2 (Drosophila melanogaster (Fruit fly)), Q24307 (parent)
# chain: B1 chain
# partner: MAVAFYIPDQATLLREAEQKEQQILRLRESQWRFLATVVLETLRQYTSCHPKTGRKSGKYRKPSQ
# B5: Caspase drICE (Drosophila melanogaster (Fruit fly)), O01382 (parent)
# chain: B1 partner
# partner: B1 chain
# B6: Death-associated inhibitor of apoptosis 2 (Drosophila melanogaster (Fruit fly)), Q24307 (parent)
# chain: B1 chain
# partner: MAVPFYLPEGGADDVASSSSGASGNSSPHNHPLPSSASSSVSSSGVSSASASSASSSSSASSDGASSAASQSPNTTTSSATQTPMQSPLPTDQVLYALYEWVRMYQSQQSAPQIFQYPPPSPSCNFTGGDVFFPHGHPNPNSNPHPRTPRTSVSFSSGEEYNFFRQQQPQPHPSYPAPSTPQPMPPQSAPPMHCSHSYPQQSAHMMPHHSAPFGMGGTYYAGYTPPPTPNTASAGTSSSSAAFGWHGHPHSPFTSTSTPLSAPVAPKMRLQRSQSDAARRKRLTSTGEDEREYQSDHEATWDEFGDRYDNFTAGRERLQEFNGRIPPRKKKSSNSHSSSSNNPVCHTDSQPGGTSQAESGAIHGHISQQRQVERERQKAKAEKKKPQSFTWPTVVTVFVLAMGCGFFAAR
# Variants of: B1
# Conditions: with drice_drome Drice
row,Variant,effect of a mutation on the interaction
1,D263A,disrupting interaction strength
2,C249G,disrupting interaction strength
3,C149G,with no effect
4,D100E,disrupting interaction strength
5,D163A,with no effect

# Variants of: B2
# Conditions: with grim_drome grim
row,Variant,effect of a mutation on the interaction
1,C149G;C249G,disrupting interaction strength
2,C46G,with no effect
3,C249G,with no effect
4,C149G,decreasing interaction strength

# Variants of: B3
# Conditions: with diap1_drome Diap1, Q24306
row,Variant,effect of a mutation on the interaction
1,C211A,with no effect

# Variants of: B4
# Conditions: with rpr_drome rpr
row,Variant,effect of a mutation on the interaction
1,C149G;C249G,decreasing interaction strength
2,C249G,with no effect
3,C149G,decreasing interaction strength
4,C46G,with no effect

# Variants of: B5
# Conditions: with diap2_drome Diap2, Q24307
row,Variant,effect of a mutation on the interaction
1,A29V,decreasing interaction strength

# Variants of: B6
# Conditions: with hid_drome hid
row,Variant,effect of a mutation on the interaction
1,C249G,with no effect
2,C149G,with no effect
3,C149G;C249G,decreasing interaction strength
4,C46G,with no effect

# Variants of: B6
# Conditions: with hid_drome hid
# Remark: another data set of the same source
row,Variant,effect of a mutation on the interaction
1,D100E,with no effect
